Reference: US6239106A, “Family of protease inhibitors, and other biologic active substances” (Clodica, S.A., priority 1994, dated 2001)
Like-named read-outs stand apart in the source and are kept apart here. Non-standard residues stand in square brackets, D forms with d. Residues, ends and D or L forms follow the SMILES beside them. No end group written: not given here. Abu = CC[C@H](N)C(=O)O

Legend:
Trypsin [1] = test: Trypsin inhibition assay (BAPNA); format: biochemical; details: for trypsin inhibition: BAPNA, 37° C.
Protocol: An assay was developed for determination of the activity of this Trypsin inhibitor. In analogy with the elastase inhibition assay the preparation of the solution was as follows:
Trypsin, Type II-S soybean trypsin inhibitor (Sigma T 9128) and BAPNA (Sigma B 3279). This was further optimized to: trypsin solution: 120 μg/ml; BAPNA solution 10 mM; Trypsin inhibitor 100 μg/ml and incubation at 37° C. All other details were equal with the elastase inhibition assay.
(§1) Elastase inhibitory activity of Fahsin was measured by inhibition of the release of the p-nitroanilide group from the synthetic substrate N-succinyl-(Ala) 3-p-nitroanilide (SAAAP) (Calbiochem), catalyzed by pancreatic elastase and human neutrophil elastase respectively. Chymotrypsin inhibition activity of Fahsin was measured by the use of the synthetic substrate S-2586 (Kabi Vitrum). […] of Fahsin was measured by the use of the synthetic substrate S-2238 (Kabi Vitrum). pepsin activity of Fahsin was measured by the use of a haemoglobin substrate. Trypsin inhibition activity was determined using the BAPNA assay. Plasmin inhibition activity of Fahsin was related with the Trypsin inhibition activity and measured by the use of the chromogenic substrate D-Val-Leusyl-Lys-pNA (Othodiagnostics).

[2] = target: T1, elastase (Boehringer, 1027891) (Sus scrofa, UniProt P00772); test: Elastase inhibition assay (chromogenic substrate SAAAP, 405 nm); format: biochemical; details: for inhibition of elastase activity: SAAAP substrate, 25° C., 30 minutes; for specific (elastase) activity: IU = quantity reducing hydrolysis of SAAAP with 1 μmol/min at pH 8.3 and 25° C.
T1 construct: purchased Boehringer 1027891
Protocol: 2. Prior lyophilized base material underwent solubility tests after resuspension of the base material in 1) 0.1M Acetic Acid, 2) 50% Acetic Acid and 3) 0.1M Ammoniumbicarbonate and after centrifugation of the various suspensions, supernatants and pellets (after resuspension). Thereafter these were tested on the presence of protein by analytical sequence analysis (Edman degradation with automated sequenator Applied Biosystems, Model 477A) (Edman, 1956; Ilse & Edman, 1963), by applying protocolls, reagentia, chemicals and materials from Applied Biosystems (Warrington, UK and Foster City, Calif., USA) (Hewick, et al, 1981).It was investigated if biologic activity included anti-elastase as the described "auto-antibiotic effect" of A. hydrophila. Therefore, tests on inhibition of elastase activity were executed with dried samples of 20 μl of supernatant and resuspension of pellet of the base material on elastase (Boehringer) and SAAAP (Fluka) as chromogenic substrate, and 0.1 M Tris/HCl pH 8.2 as assay buffer. Based on the results obtained with the different solutions, and the inhibition of elastase, it was decided to use 0.1 M Hac as solution for the lyophilized base material and thereafter as eluens for gel filtration.
The principle of the assay resides in inhibition of elastase (Boehringer, 1027891) activity on the chromogenic substrate SAAAP (Fluka, nr. 85975) as measured at 405 nm spectophotometrically by monitoring release of the p-nitro-aniline group during substrate digestion.
Assay buffer: 0.1M Tris/HCl pH 8.2, 1M NaCl.
Elastase: 40 μg/ml in H2 O.
Substrate: 1.0 mM SAAAP in H2 O.
Glacial Acetic Acid 50%: diluted in H2 O.
Reaction in tubes (Eppendorf), containing 100 μl assay buffer, 50 μl sample elastase inhibitor, 50 μl elastase solution was started by addition of SAAAP (25 μl, 1 mM) and incubated at 25° C. for 30 minutes. Thereafter the reaction was stopped by addition of 25 μl 50% Glacial Acetic Acid. The Absorbance of released p-nitroaniline was read at 405 nm.
International units (IU) are defined as that quantity which reduces the enzymatic hydrolysis of SAAAP with 1 μmol/min at pH 8.3 and 25° C.

[3] = Protocol: Stability of the molecule was tested
a) by boiling it in water at 100° C. for 30 minutes.
b) by immersion in 50% acetic acid at room temperature during one night, and
c) by immersion in 0.1M HCl in the same conditions.
The samples were consequently assayed with the elastase inhibition assay, as were blancs without inhibitor.

[4] = target: elastase (Boehringer, 1027891)
trypsin [5] = target: trypsin
plasmin = plasmin (Homo sapiens, UniProt P00747); test: Plasmin inhibition (chromogenic substrate D-Val-Leusyl-Lys-pNA); format: biochemical
Protocol: as §1

[6] = target: elastase (Boehringer, 1027891); remark: listed apart in the source

T1 sequence (P00772 27-266): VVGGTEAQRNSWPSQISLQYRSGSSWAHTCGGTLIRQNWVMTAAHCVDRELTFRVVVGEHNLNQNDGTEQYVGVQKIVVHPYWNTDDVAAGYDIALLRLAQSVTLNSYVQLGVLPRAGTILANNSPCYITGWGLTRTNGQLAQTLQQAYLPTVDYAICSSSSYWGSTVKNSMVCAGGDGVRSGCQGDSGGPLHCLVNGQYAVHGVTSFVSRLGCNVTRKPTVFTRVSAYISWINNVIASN
Sequence of plasmin (P00747 581-810 limits assumed, species assumed): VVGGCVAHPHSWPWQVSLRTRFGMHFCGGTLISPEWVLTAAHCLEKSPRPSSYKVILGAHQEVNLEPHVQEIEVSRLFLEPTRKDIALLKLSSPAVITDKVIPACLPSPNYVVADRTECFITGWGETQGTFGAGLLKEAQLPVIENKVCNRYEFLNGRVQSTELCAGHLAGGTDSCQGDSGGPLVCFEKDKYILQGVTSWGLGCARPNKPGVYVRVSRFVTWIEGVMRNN
Sequence of plasmin (P00747 97-580 partner limits assumed, species assumed): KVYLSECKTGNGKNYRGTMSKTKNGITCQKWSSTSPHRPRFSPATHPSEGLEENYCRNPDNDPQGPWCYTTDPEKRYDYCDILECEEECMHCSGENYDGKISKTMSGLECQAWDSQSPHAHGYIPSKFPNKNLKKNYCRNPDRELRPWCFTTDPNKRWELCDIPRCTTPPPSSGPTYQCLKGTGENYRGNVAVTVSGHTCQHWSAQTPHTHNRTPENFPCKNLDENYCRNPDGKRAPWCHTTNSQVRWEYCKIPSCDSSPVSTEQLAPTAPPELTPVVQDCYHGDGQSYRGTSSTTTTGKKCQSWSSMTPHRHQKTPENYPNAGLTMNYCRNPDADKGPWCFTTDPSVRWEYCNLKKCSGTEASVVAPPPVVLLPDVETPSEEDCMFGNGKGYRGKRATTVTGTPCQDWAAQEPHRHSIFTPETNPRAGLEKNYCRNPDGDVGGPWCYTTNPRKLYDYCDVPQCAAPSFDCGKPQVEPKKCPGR

## CC[C@H](NC(=O)[C@H](CCCNC(=N)N)NC(=O)[C@@H](NC(=O)[C@@H]1CCCN1C(=O)[C@@H](NC(C)=O)[C@@H](C)O)[C@@H](C)CC)C(=O)N[C@@H](CCCNC(=N)N)C(=O)N[C@H](C(=O)N[C@@H](Cc1ccc(O)cc1)C(=O)N[C@@H](CC)C(=O)N1CCC[C@H]1C(=O)N[C@@H](CCCCN)C(=O)NCC(=O)N[C@@H](Cc1ccccc1)C(=O)N[C@@H](CCC(=O)O)C(=O)N[C@H](C(=O)N[C@@H](CC(=O)O)C(N)=O)C(C)C)[C@@H](C)CC [Synthetic peptide II, N-Acetyl-TPIRAbuRIYAbuPKGFEVD-amide] (Ac-TPIR[Abu]RIY[Abu]PKGFEVD-NH2)
Trypsin [1]
  trypsin inhibition: dose-dependent inhibition of trypsin activity
Trypsin [1]; relative to native molecule
  specific effectivity (trypsin inhibition), factor less than the native molecule: ~1,500

## CC[C@H](NC(=O)[C@H](CCCNC(=N)N)NC(=O)[C@@H](NC(=O)[C@@H]1CCCN1C(=O)[C@@H](NC(C)=O)[C@@H](C)O)[C@@H](C)CC)C(=O)N[C@@H](CC(C)C)C(=O)N[C@H](C(=O)N[C@@H](Cc1ccccc1)C(=O)N[C@@H](CC)C(=O)N1CCC[C@H]1C(=O)N[C@@H](CC(N)=O)C(=O)NCC(=O)N[C@@H](Cc1ccccc1)C(=O)N[C@@H](C)C(=O)N[C@H](C(=O)N[C@@H](CC(=O)O)C(N)=O)C(C)C)[C@@H](C)CC [Synthetic peptide I, N-Acetyl-TPIRAbuLIFAbuPNGFAVD-amide] (Ac-TPIR[Abu]LIF[Abu]PNGFAVD-NH2)
[2]
  inhibition of elastase activity: dose-dependent inhibition of elastase activity
[2]; relative to native molecule
  specific effectivity (elastase inhibition), factor less than the native molecule: ~5,000

## peak 7: single molecule isoform from Limnatis nilotica, 5494.4 D, partial sequence in b92, elastase inhibitor (DDDCGGQVCSKGQLCHDGHCECTPIRCLIYCPNFVDE)
[2]
  specific (elastase) activity: 1.2 IU/mg
  inhibition of elastase activity: showed inhibition of elastase

## DDNCGGKVCSKGQLCHDGHCECTPIRCLIFCPNGFAVDENGCELPCSCKHQ (cysteine pairing not given here) [peak 8]
[2]
  specific (elastase) activity: 1.7 IU/mg
  inhibition of elastase activity: showed inhibition of elastase
[3]; 0.1M HCl at room temperature during one night
  stability: elastase inhibiting activity after treatment: no significant decrease of inhibiting activity
[3]; 50% acetic acid at room temperature during one night
  stability: elastase inhibiting activity after treatment: no significant decrease of inhibiting activity
[3]; boiling in water at 100° C. for 30 minutes
  stability: elastase inhibiting activity after treatment: no significant decrease of inhibiting activity

## DDDCGGQVCSKGQLCHDGHCECTPIRCLIYCPNFVDE [FAHSIN E 1]
[4]
  specific (elastase) activity, inhibition of SAAAP hydrolysis: 1.2 IU/mg

B1: Synthetic linear peptide N-Acetyl-TPIRAbuRIYAbuPKGFEVD-amide (II) (peptide)
peptide: Ac-TPIR[Abu]RIY[Abu]PKGFEVD-NH2
SMILES: CC[C@H](NC(=O)[C@H](CCCNC(=N)N)NC(=O)[C@@H](NC(=O)[C@@H]1CCCN1C(=O)[C@@H](NC(C)=O)[C@@H](C)O)[C@@H](C)CC)C(=O)N[C@@H](CCCNC(=N)N)C(=O)N[C@H](C(=O)N[C@@H](Cc1ccc(O)cc1)C(=O)N[C@@H](CC)C(=O)N1CCC[C@H]1C(=O)N[C@@H](CCCCN)C(=O)NCC(=O)N[C@@H](Cc1ccccc1)C(=O)N[C@@H](CCC(=O)O)C(=O)N[C@H](C(=O)N[C@@H](CC(=O)O)C(N)=O)C(C)C)[C@@H](C)CC
Trypsin [5]
  specific effectivity against the native molecule: 1500 factor less

B2: peak 9: isoform found to be a mixture of two molecules, 5385.5 and 5454.1 D, partial sequence in b93 (protein)
chain 1: DDDCGGKVCSKGQLCVDGHCECTPIRCLIYCPNGFAVENGC
chain 2: DGNCGGQVCSKGQLCVDGQCKCTPIRCLIYCPNGFAVENGC
[2]
  specific (elastase) activity: 0.95 IU/mg
  inhibition of elastase activity: showed inhibition of elastase

B3: peak 5: 1:1 mixture of 2 peptides, 5377.2 and 5435.5 Dalton, SEQ ID NO:5 or 6, trypsin inhibitor (protein)
chain 1: DDDCGGQVCSKGQLCVDGQCKCTPIRCRIYCPKGFEVDENGCELPCTCKQ
chain 2: DGNCGGQVCSKGQLCVDGQCKCTPIRCRIYCPKGFEVDENGCELPCTCKQ
Trypsin [1]; listed as Fahsin T 1-2
  trypsin inhibition: strongly active
Trypsin [1]; listed as Fraction 5
  trypsin inhibition: strong trypsin inhibition
Trypsin [1]; ratio to peaks 7, 8 and/or 9
  trypsin inhibitory activity compared with the fractions corresponding to peaks 7, 8 and/or 9: at least twenty times higher
[2]
  specific (elastase) activity: less than 0,06 IU/mg
  inhibition of elastase activity: did not show anti-elastase activity
plasmin
  inhibition of plasmin: strongly active

B4: Synthetic linear peptide N-Acetyl-TPIRAbuLIFAbuPNGFAVD-amide (I) (peptide)
peptide: Ac-TPIR[Abu]LIF[Abu]PNGFAVD-NH2
SMILES: CC[C@H](NC(=O)[C@H](CCCNC(=N)N)NC(=O)[C@@H](NC(=O)[C@@H]1CCCN1C(=O)[C@@H](NC(C)=O)[C@@H](C)O)[C@@H](C)CC)C(=O)N[C@@H](CC(C)C)C(=O)N[C@H](C(=O)N[C@@H](Cc1ccccc1)C(=O)N[C@@H](CC)C(=O)N1CCC[C@H]1C(=O)N[C@@H](CC(N)=O)C(=O)NCC(=O)N[C@@H](Cc1ccccc1)C(=O)N[C@@H](C)C(=O)N[C@H](C(=O)N[C@@H](CC(=O)O)C(N)=O)C(C)C)[C@@H](C)CC
[6]
  specific effectivity against the native molecule: 5000 factor less
